± gives the uncertainty stated by the source.

The nature of the data set: self-splicing fitness, log relative to wild type (ln ratio); higher = more splicing; Tetrahymena group I intron in knt gene, E. coli kanamycin selection, DiMSum; sequences stand for … in CUCUCU…GGAGGGAAAAGUUAUCAGGCAUGCACCUGGUAGCUAGUCUUUAAACCAAUAGAUUGCAUCGGUUUAAAAGGCAAGACCGUCAAAUUGCGGGAAAGGGGUCAACAGCCGUUCAGUACCAAGUCUCAGGGGAAACUUUGAGAUGGCCUUGCAAAGGGUAUGGUAAUAAGCUGACGGACAUGGUCCUAACCACGCAGCCAAGUCCUAAGUCAACAGAUCUUCUGUUGAUAUGGAUGCAGUUCACAGACUAAAUGUCGGUCGGGGAAGAUGUAUUCUUCUCAUAAGAUAUAGUCGGACCUCUCCUUAAUGGGAGCUAGCGGAUGAAGUGAUGCAACACUGGAGCCGCUGGGAACUAAUUUGUAUGCGAAAGUAUAUUGAUUAGUUUUGGAGUACUCGUGGUCG
The method in brief:
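Fitness was computed with DiMSum as the error-weighted combination of replicate fold changes, kanamycin versus none, each normalised to wild type. The library randomised all eight intron nucleotides of the P1ex region, with the intron placed in the knt kanamycin-resistance gene on pET-22b(+) in E. coli BL21(DE3). Six replicate transformations were grown overnight at 37°C or 30°C on LB agar with or without 25 μg/mL kanamycin, plus 100 μg/mL carbenicillin, 50 μM IPTG and 0.2% rhamnose. Pooled colonies were amplicon-sequenced on an Illumina HiSeq 2500.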

With UAUAAGCAAUAUUACGGUGG, the “self-splicing fitness (ln)” value by setting is: (30 °C) -1.67 ± 0.13; (37 °C) -0.746 ± 0.13. The matching figures for UAUAAGCAAUAUUACGUAUG: -1.31 ± 0.091 and -0.577 ± 0.12. The matching figures for UAUAAGCAAUAUUACGUCGC: -3.29 ± 0.28 and -2.24 ± 0.37.

As for UAUAAGCAAUAUUACGUGUA, the “self-splicing fitness (ln)” value reads like this: (30 °C) -1.48 ± 0.1; (37 °C) -0.896 ± 0.1. As for UAUCAGCAAUAUUACGACAU, the “self-splicing fitness (ln)” value by setting is: (30 °C) -0.823 ± 0.012; (37 °C) -0.0787 ± 0.032. In the case of UAUCAGCAAUAUUACGAGGC, for the setting “37 °C”, the “self-splicing fitness (ln)” value was -2.77 ± 0.37.

Consider UAUCAGCAAUAUUACGAUAC, for which the “self-splicing fitness (ln)” value (30 °C) is -3.07 ± 0.28 and the “self-splicing fitness (ln)” value (37 °C) was -1.85 ± 0.25.

On to UAUCAGCAAUAUUACGAUAU, for which the “self-splicing fitness (ln)” value by setting is: (30 °C) -2.41 ± 0.11; (37 °C) -1.64 ± 0.13.

On to UAUCAGCAAUAUUACGCAAG, for which the “self-splicing fitness (ln)” value is -0.949 ± 0.074 (30 °C) and 0.273 ± 0.097 (37 °C). The matching figures for UAUCAGCAAUAUUACGCACG: -0.349 ± 0.11 and 0.232 ± 0.14. For UAUCAGCAAUAUUACGCAGA, the “self-splicing fitness (ln)” value by setting is: (30 °C) -1.57 ± 0.15; (37 °C) -1.03 ± 0.1. As for UAUCAGCAAUAUUACGCGAG, the “self-splicing fitness (ln)” value is -0.712 ± 0.057 (30 °C) and -0.298 ± 0.071 (37 °C). For UAUCAGCAAUAUUACGCGGG the same measures were -0.936 ± 0.076 and -1.14 ± 0.098.

In the case of UAUCAGCAAUAUUACGCGUU, the “self-splicing fitness (ln)” value (30 °C) is -1.7 ± 0.13 and the “self-splicing fitness (ln)” value (37 °C) is -1 ± 0.17. For UAUCAGCAAUAUUACGCUCU the same measures were 0.148 ± 0.12 and 0.416 ± 0.13. The matching figures for UAUCAGCAAUAUUACGCUGG: -3.15 ± 0.25 and -1.62 ± 0.21. The matching figures for UAUCAGCAAUAUUACGGAUA: -2.17 ± 0.24 and -1.85 ± 0.31. UAUCAGCAAUAUUACGGCGC: the “self-splicing fitness (ln)” value is, setting by setting: (30 °C) -2.69 ± 0.18; (37 °C) -1.12 ± 0.21. For UAUCAGCAAUAUUACGGCGG the same measures were -0.918 ± 0.086 and 0.373 ± 0.093. The matching figures for UAUCAGCAAUAUUACGGGAU: -3.78 ± 0.24 and -1.72 ± 0.14.

As to UAUCAGCAAUAUUACGGGCA, the “self-splicing fitness (ln)” value runs as follows: (30 °C) -0.0174 ± 0.066; (37 °C) 0.193 ± 0.084. For UAUCAGCAAUAUUACGGGGA the same measures were -1.76 ± 0.094 and -0.643 ± 0.1.

For the sequence UAUCAGCAAUAUUACGGGGC, the “self-splicing fitness (ln)” value runs as follows: (30 °C) -2.85 ± 0.18; (37 °C) -2.59 ± 0.19. For UAUCAGCAAUAUUACGGGGG the same measures were -1.51 ± 0.092 and -1.11 ± 0.14. For UAUCAGCAAUAUUACGUAGC the same measures were -2.63 ± 0.16 and -1.42 ± 0.2.

Consider UAUCAGCAAUAUUACGUAUU, for which the “self-splicing fitness (ln)” value was -0.834 ± 0.078 (30 °C) and -0.815 ± 0.094 (37 °C). The matching figures for UAUCAGCAAUAUUACGUCAC: -4 ± 0.31 and -1.83 ± 0.3.

UAUCAGCAAUAUUACGUCCG: the “self-splicing fitness (ln)” value (30 °C) is -0.361 ± 0.11 and the “self-splicing fitness (ln)” value (37 °C) was found to be 0.121 ± 0.14.

UAUCAGCAAUAUUACGUCGC: under “37 °C”, the “self-splicing fitness (ln)” value is -2.03 ± 0.33. Turning to UAUCAGCAAUAUUACGUCUA, the “self-splicing fitness (ln)” value reads like this: (30 °C) -0.033 ± 0.078; (37 °C) 0.747 ± 0.1. Regarding UAUCAGCAAUAUUACGUGUG, the “self-splicing fitness (ln)” value is -0.333 ± 0.058 (30 °C) and 0.407 ± 0.076 (37 °C). In the case of UAUGAGCAAUAUUACGAAAU, the “self-splicing fitness (ln)” value (30 °C) is -3.68 ± 0.37. Regarding UAUGAGCAAUAUUACGAAUU, the “self-splicing fitness (ln)” value (30 °C) was -2.36 ± 0.33 and the “self-splicing fitness (ln)” value (37 °C) was -1.73 ± 0.32. For UAUGAGCAAUAUUACGACGA the same measures were -1.87 ± 0.36 and -1.62 ± 0.34. The matching figures for UAUGAGCAAUAUUACGAGAC: -2.85 ± 0.39 and -2.4 ± 0.32. As for UAUGAGCAAUAUUACGAGAU, the “self-splicing fitness (ln)” value (37 °C) was -2.19 ± 0.3. For UAUGAGCAAUAUUACGAGCU, the “self-splicing fitness (ln)” value is, setting by setting: (30 °C) -2.71 ± 0.2; (37 °C) -2.09 ± 0.42. The matching figures for UAUGAGCAAUAUUACGAGUU: -3.21 ± 0.17 and -2.57 ± 0.24. The matching figures for UAUGAGCAAUAUUACGAUAG: -2.31 ± 0.35 and -0.767 ± 0.38. For UAUGAGCAAUAUUACGAUAU the same measures were -3.47 ± 0.26 and -2.02 ± 0.36. Consider UAUGAGCAAUAUUACGAUCG, for which the “self-splicing fitness (ln)” value was -1.79 ± 0.12 (30 °C) and -0.568 ± 0.12 (37 °C). For UAUGAGCAAUAUUACGAUGG the same measures were -3.59 ± 0.29 and -0.796 ± 0.23.

Take UAUGAGCAAUAUUACGCAUG: the “self-splicing fitness (ln)” value was -2.53 ± 0.11 (30 °C) and -1.76 ± 0.15 (37 °C). For UAUGAGCAAUAUUACGCCUU the same measures were -3.19 ± 0.29 and -2.11 ± 0.34. For UAUGAGCAAUAUUACGCGAA the same measures were -1.62 ± 0.18 and -0.947 ± 0.32. With UAUGAGCAAUAUUACGGCAC, the “self-splicing fitness (ln)” value (30 °C) is -2.09 ± 0.28. With UAUGAGCAAUAUUACGGCUU, the “self-splicing fitness (ln)” value (37 °C) was -1.62 ± 0.32. Take UAUGAGCAAUAUUACGGUCA: the “self-splicing fitness (ln)” value reads like this: (30 °C) -2.22 ± 0.25; (37 °C) -1.65 ± 0.25.

Regarding UAUGAGCAAUAUUACGUCAG, the “self-splicing fitness (ln)” value is -2.82 ± 0.14 (30 °C) and -2.51 ± 0.2 (37 °C). The matching figures for UAUGAGCAAUAUUACGUCCU: -2.35 ± 0.23 and -2.19 ± 0.49. The matching figures for UAUGAGCAAUAUUACGUCGG: -2.86 ± 0.23 and -2.18 ± 0.2. The matching figures for UAUGAGCAAUAUUACGUCUA: -0.497 ± 0.1 and -0.408 ± 0.13. For UAUGAGCAAUAUUACGUGCU, the “self-splicing fitness (ln)” value runs as follows: (30 °C) -3.7 ± 0.32; (37 °C) -2.39 ± 0.34. Consider UAUGAGCAAUAUUACGUUGA, for which the “self-splicing fitness (ln)” value is -2.96 ± 0.26 (30 °C) and -1.25 ± 0.17 (37 °C). For UAUGAGCAAUAUUACGUUUA the same measures were -2.59 ± 0.24 and -1.94 ± 0.14.

With UAUGAGCAAUAUUACGUUUC, the “self-splicing fitness (ln)” value reads like this: (30 °C) -3.66 ± 0.4; (37 °C) -1.67 ± 0.32. For UAUUAGCAAUAUUACGACAC the same measures were -1.54 ± 0.14 and -1.92 ± 0.21. For UAUUAGCAAUAUUACGCACC the same measures were -2.77 ± 0.26 and -0.337 ± 0.2. For UAUUAGCAAUAUUACGCCUA the same measures were -0.107 ± 0.15 and -0.038 ± 0.14. For UAUUAGCAAUAUUACGGAAG, the “self-splicing fitness (ln)” value is -2.63 ± 0.31 (30 °C) and -1.9 ± 0.25 (37 °C). The matching figures for UAUUAGCAAUAUUACGGAUG: -0.629 ± 0.09 and -0.294 ± 0.12. For UAUUAGCAAUAUUACGGCUA the same measures were -0.404 ± 0.15 and 0.399 ± 0.14.

The values above are taken from the supplement of paper PMC7877785.
